One block for each molecule: values may come before it.
Tests used:
[1] = molecular target: Angiostatin + Binding Domain (UniProt P00747); test: cell-based or functional assay
p53 + Binding Domain = test: cell-based or functional assay
ABP-1 = molecular target: T1, ABP-1 (human, UniProt Q4VCS5 410-1084); test: fluorescence microscopy, FITC-labelled angiostatin (10 ug/ml) on live HeLa cells transfected with ABP-1
T1 construct: also called angiostatin receptor
T1 sequence: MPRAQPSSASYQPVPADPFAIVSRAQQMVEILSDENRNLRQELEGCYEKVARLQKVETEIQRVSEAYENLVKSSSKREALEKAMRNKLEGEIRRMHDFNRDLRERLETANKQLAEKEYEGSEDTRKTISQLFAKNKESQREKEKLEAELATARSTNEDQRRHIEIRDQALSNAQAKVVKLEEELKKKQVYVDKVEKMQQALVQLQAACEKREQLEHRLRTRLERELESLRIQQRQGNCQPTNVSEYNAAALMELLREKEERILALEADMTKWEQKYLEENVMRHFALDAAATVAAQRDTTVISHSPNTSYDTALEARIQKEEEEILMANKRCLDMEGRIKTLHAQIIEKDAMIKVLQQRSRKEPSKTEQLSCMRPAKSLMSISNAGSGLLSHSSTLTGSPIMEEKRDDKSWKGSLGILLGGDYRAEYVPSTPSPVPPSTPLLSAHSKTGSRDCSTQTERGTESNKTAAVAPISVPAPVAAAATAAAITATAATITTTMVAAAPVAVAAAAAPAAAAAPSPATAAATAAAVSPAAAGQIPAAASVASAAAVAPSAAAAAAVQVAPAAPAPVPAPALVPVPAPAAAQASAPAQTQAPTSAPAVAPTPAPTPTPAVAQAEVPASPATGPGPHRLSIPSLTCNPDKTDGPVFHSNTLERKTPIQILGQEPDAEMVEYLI

Angiostatin + Binding Domain, sequence (P00747 whole entry, the tested form may be a part): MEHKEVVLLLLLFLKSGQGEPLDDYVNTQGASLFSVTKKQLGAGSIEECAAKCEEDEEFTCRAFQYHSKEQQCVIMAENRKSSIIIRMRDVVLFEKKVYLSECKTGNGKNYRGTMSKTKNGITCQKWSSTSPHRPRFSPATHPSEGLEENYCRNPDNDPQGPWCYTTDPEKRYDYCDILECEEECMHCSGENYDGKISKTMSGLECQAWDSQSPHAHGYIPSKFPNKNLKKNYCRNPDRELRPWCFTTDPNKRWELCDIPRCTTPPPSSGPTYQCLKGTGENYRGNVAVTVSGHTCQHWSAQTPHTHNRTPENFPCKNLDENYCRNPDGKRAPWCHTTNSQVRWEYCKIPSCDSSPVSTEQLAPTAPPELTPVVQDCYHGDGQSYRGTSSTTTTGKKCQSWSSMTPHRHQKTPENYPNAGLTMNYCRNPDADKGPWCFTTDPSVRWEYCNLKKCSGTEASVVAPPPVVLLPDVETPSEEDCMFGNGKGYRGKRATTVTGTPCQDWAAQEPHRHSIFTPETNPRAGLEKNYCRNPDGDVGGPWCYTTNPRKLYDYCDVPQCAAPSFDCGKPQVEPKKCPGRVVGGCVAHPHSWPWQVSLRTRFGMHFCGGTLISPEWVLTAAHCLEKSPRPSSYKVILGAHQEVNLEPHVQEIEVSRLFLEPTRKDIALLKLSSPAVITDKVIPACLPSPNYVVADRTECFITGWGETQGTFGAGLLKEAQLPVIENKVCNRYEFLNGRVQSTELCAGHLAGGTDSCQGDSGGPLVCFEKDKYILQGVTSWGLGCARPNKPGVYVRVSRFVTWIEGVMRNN

- β-Gal Activity [1]: < 0.04 u
Molecule: Activation Domain alone (from UniProt P04386 768-881)

Molecule: SV40LT - Activation Domain (from UniProt P03070 84-708)
- β-Gal Activity (p53 + Binding Domain): 90 u

- binding result (ABP-1): binds
B1: human angiostatin (kringle domains 1-4 of plasminogen) (ligand, UniProt P00747 99-459, looked up)
chain: YLSECKTGNGKNYRGTMSKTKNGITCQKWSSTSPHRPRFSPATHPSEGLEENYCRNPDNDPQGPWCYTTDPEKRYDYCDILECEEECMHCSGENYDGKISKTMSGLECQAWDSQSPHAHGYIPSKFPNKNLKKNYCRNPDRELRPWCFTTDPNKRWELCDIPRCTTPPPSSGPTYQCLKGTGENYRGNVAVTVSGHTCQHWSAQTPHTHNRTPENFPCKNLDENYCRNPDGKRAPWCHTTNSQVRWEYCKIPSCDSSPVSTEQLAPTAPPELTPVVQDCYHGDGQSYRGTSSTTTTGKKCQSWSSMTPHRHQKTPENYPNAGLTMNYCRNPDADKGPWCFTTDPSVRWEYCNLKKCSGTEA
modifications: FITC-labelled in the cell binding assay of FIG. 9C
notes: domain: kringle domains 1-4; Used unlabelled in the pull-down and kinase assays, FITC-labelled on transfected HeLa cells; also called K1-K4; FITC-labelled angiostatin

Reference: patent US20040141978A1 (PHARMACIA AND UPJOHN, published 2004)
